Results taken from patent US20250197491A1 (MACOMICS, published 2025).
Values belong to the binder of their own block, whether it stands above or below them.

Tests used:
Human full length LILRB2 [1] = target: T1, Human full length LILRB2 (human, UniProt Q8N423 22-597); assay: flow cytometry, displacement of PE-labelled HLA-A2, HLA-E and HLA-G multimers from HEK293 cells overexpressing LILRB2
T1 construct: Over-expressed on HEK293 cells for flow cytometry; Also used here as the parent protein of the D3-D4 peptide microarrays; also called LILRB2 on HEK293 cells
Protocol: To investigate if the Antibodies 1 to 5 could neutralize binding of other HLA-As to LILRB1 or to LILRB2, HEK293 cells overexpressing the receptors were incubated with constant concentrations of PE-labelled HLA-A2, HLA-E, and HLA-G multimers and increasing concentrations of Antibodies 1 to 5 or the reference antibodies. The ability to neutralize binding of HLA to the cells was determined by flow cytometry (FIG. 21). None of Antibodies 1 to 5 neutralized binding of HLA-A (A), HLA-E (B), and […] to LILRB1 protein, up to the concentrations of 100 nM, whereas Reference 1 antibody (LILRB1 specific) and Reference 3 antibody (LILRB1/2 specific) neutralized the binding with an IC₅₀ in the sub- or low-nM range. Similarly, none of Antibodies 1 to 5 neutralised efficiently the binding of HLA-A (E) and HLA-G (G). […] Reference Antibody 2 (LILRB2 specific) and Reference Antibody 3 (LILRB1/2 specific), inhibited the binding for all HLAs, with IC₅₀ with sub- or low-nM range.

Human full length LILRB2 [2] = target: T1, Human full length LILRB2; assay: flow cytometry on HEK293 cells overexpressing human LILRB2
Protocol: FIG. 7. Binding to LILRB2 over-expressing cell line. HEK293 cells overexpressing full length human LILRB2 (SEQ ID NO: 46) were incubated with various concentrations of test antibodies (Antibody 1 to 5 and Reference Antibody 1).
(§1) Binding to human LILRB1 and LILRB2. HEK293 cells stably expressing full length human LILRB1 (SEQ ID NO: 45), or LILRB2 (SEQ ID NO: 46), or wild-type cells were detached from the culture plates using methods known in art. The cells were then incubated with anti-LILRB1 Ab clones at different concentrations followed by incubation with fluorescently labelled secondary antibodies. The extent of antibody binding to cells stably expressing full-length human LILRB1, or full-length human LILRB2, was determined by flow cytometry and quantified using geometric mean of the fluorescent signal (GEOM).

Human full length LILRB1 = target: T2, Human full length LILRB1 (human, UniProt Q8NHL6 24-650); assay: flow cytometry on HEK293 cells overexpressing human LILRB1
T2 construct: Over-expressed on HEK293 cells for flow cytometry; also called LILRB1 on HEK293 cells; cell membrane embedded LILRB1
Protocol: FIG. 5. Binding to LILRB1 over-expressing cell line. HEK293 cells overexpressing full length human LILRB1 (SEQ ID NO: 45) were incubated with various concentrations of test antibodies (Antibody 1 to 5 and Reference Ab 1). The bound antibodies were detected using PE-labeled secondary antibodies and analyzed by flow cytometry. A) Plot showing mean fluorescence intensity (MFI), B) EC50 values calculated using data from panel A.
as §1, with “The cells were then incubated with anti-LILRB1 Ab clones at different concentrations followed by incubation with fluorescently labelled secondary antibodies.” left out
The ability of selected anti-LILRB-1 antibodies to bind to the LILRB1 receptor in its native context of the cell membrane was investigated by flow cytometry. HEK293 cells over-expressing full length human LILRB1 (SEQ ID NO: 45) were incubated with the increasing amounts of the antibodies and the cell bound antibodies were detected using PE-labelled secondary antibodies using a flow-cytometer.

[3] = target: T3, Human LILRB1 (D1-D2) fused to mouse IgG2a Fc (human); assay: ELISA, antigen coated, 10 nM antibody
T3 construct: also called truncated (D1-D2) version of the LILRB1 ecto-domain
Source text: (§2) FIG. 3. Mixed LILRB1 and LILRB2 expression in TAMs from melanoma cancer patients. Analysis of LILRB1 and LILRB2 detection in macrophages in pre- and post-anti-PD-1 and/or anti-CTLA-4 therapy treated melanoma patients (n=33) is shown using Smart-seq2 data from Sade-Feldman et al. https://pubmed.ncbi.nlm.nih.gov/30633907/FIG. 4. Binding to domains of human LILRB1. Plates were coated with recombinant full length LILRB1 ectodomain (SEQ ID NO: 41) or a protein comprising domain 1 and 2 of human LILRB1 protein (SEQ ID NO: 42), and then incubated with 10 nM Clones 1-5, Reference Ab 1, and Isotype control. The bound antibodies were detected using HRP-labeled secondary antibodies and the results were plotted on the graph as absorbance measured at 450 nm.
(§3) Binding to allelic forms of LILRB1. There are 4 major allelic variants of human LILRB1 protein ectodomain. The variants of LILRB1 were expressed as recombinant proteins comprising a modified LILRB1 ectodomain and mouse IgG2 Fc region (SEQ ID NO: 50 and 51) in suspension CHO cells, and purified by using techniques that were known in the art. These recombinant proteins were then used in the direct enzyme-linked immunosorbent assay (ELISA) to determine the antibodies potential to bind different allelic forms of LILRB1. In short, Maxisorp (Nunc) or similar immune-assay plates were coated with solutions of target proteins in PBS, at 4° C., overnight. Plates were then washed with PBS, blocked with 5% milk in PBS, and washed again. Test antibodies diluted in PBS were then added to the plates and incubated at room temperature for at least 1h. Plates were subsequently washed with PBS/0.05% Tween-20 (PBST) and incubated with a solution of horse radish peroxidase (HRP) labelled secondary antibodies at room temperature for at least 1 h. After washing with PBST and PBS, bound antibodies were detected using the 3,3′,5,5;-tetramethylbenzidine (TMB) chromogenic solution. After 5 to 10 minutes, the reaction was stopped with 1% sulphuric acid and absorbance read at 450 nm.
(§4) There are four major allelic variants within the ecto-domain of LILRB1 in human population [Human Molecular Genetics, 2005, Vol. 14, 2469-2480]; namely c.203T>C (L68P), c.277G>A (A93T), c.425T>C (I142T), and c.464G>T (S155I).

[4] = target: T4, human LILRB1 ectodomain fused to mIgG2a Fc (human); assay: ELISA, antigen coated, 10 nM antibody
T4 construct: also called human LILRB1-mIgG2a; full length LILRB1 ectodomain
Source text: as §2, §3, §4

T1 sequence (Q8N423 other isoform, or with tags, fused parts or gaps limits assumed): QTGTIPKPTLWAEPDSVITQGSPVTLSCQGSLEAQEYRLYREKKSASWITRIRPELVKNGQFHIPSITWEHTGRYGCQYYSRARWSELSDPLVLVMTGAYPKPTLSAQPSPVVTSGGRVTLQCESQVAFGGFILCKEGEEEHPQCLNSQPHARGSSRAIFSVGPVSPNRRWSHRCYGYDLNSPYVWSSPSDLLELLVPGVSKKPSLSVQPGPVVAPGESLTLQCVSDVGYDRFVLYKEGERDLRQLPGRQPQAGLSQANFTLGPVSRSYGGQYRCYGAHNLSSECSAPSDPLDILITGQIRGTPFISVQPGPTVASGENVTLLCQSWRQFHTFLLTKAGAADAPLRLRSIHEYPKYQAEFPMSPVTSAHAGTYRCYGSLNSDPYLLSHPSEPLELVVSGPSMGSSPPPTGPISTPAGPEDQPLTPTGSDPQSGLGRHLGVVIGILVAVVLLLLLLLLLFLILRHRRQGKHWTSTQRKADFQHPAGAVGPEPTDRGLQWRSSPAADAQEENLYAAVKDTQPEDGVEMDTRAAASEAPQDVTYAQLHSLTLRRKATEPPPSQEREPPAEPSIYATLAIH
T2 sequence (Q8NHL6 24-650 limits assumed): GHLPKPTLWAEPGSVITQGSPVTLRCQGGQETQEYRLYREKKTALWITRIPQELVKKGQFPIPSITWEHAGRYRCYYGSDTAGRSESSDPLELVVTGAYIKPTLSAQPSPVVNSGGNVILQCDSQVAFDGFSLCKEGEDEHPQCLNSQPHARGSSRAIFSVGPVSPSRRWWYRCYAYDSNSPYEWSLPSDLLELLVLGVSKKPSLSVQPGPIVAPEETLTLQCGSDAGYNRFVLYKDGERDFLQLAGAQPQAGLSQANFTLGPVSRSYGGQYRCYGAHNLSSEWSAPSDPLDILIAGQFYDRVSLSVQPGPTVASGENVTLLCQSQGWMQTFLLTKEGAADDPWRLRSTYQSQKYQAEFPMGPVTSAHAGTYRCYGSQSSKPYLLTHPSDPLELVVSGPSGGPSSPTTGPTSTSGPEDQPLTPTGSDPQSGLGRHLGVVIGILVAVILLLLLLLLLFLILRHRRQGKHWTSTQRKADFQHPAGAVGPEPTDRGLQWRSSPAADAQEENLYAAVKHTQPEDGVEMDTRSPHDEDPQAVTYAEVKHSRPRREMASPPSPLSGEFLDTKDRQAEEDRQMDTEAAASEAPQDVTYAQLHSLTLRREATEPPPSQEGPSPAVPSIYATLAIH
T4 sequence (chain, as listed by the source limits assumed): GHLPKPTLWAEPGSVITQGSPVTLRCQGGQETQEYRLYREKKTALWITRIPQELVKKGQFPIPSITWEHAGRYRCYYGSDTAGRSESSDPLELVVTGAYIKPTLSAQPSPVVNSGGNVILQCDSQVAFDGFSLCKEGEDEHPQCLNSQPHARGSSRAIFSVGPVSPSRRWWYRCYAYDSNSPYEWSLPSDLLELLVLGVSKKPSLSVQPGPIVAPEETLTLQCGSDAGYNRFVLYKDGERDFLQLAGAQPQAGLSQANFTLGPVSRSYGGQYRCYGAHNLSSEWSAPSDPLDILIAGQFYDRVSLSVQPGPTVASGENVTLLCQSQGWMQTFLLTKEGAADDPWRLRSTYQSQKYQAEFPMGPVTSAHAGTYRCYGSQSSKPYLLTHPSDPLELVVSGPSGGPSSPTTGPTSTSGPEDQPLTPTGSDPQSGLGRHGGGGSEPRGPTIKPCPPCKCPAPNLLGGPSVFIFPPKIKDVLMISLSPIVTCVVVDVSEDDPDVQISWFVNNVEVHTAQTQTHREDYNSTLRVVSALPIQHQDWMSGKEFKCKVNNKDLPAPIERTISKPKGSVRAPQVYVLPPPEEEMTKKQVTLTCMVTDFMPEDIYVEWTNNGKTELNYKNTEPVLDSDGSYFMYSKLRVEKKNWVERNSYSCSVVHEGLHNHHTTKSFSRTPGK
T3 sequence (chain, as listed by the source limits assumed): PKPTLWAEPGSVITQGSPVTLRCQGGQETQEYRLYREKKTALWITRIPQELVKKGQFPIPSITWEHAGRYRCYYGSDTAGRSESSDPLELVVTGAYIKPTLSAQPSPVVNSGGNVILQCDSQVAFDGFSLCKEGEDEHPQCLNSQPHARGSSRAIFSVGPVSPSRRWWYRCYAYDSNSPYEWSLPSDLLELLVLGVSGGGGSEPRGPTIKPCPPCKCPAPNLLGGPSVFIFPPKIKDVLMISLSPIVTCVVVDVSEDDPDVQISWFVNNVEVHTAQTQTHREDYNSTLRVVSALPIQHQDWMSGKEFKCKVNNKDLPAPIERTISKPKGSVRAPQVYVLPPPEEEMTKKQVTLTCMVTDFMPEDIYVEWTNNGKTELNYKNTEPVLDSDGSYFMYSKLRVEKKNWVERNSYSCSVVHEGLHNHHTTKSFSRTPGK

- binding result (Human full length LILRB2 [1]): binds
B1: Reference antibody 2 (anti-human LILRB2 Ab) (antibody, human IgG4 S228P, lambda, V domains shown)
VH: EVQLQQWGAGLLKPSETLSLTCAVYGGSFSGYYWSWIRQPPGKGLEWIGEINHAGSTNYNPSLKSRVTISVDTSKNQFSLKLSSVTAADTAVYYCARLPTRWVTTRYFDLWGRGTLVTVSS
VL: ESVLTQPPSVSGAPGQRVTISCTGSSSNIGAGYDVHWYQQLPGTAPKLLIYGDSNRPSGVPDRFSVSKSGASASLAITGLQAEDEADYYCQSFDNSLSAYVFGGGTQLTVLG

- binding result (Human full length LILRB2 [2]): no binding
- EC50 (Human full length LILRB1): 0.73 nM
- binding result [3]: binds
- binding result [4]: binds
B2: Reference Antibody 1 (anti-human LILRB1 Ab) (antibody, V domains shown)
VH: DVQLQGSGPGLVKPSETLSLTCSVTGYSITSGYYWNWIRQFPGKKLEWMGYISYDGSNNYNPSLKNRITISRDTSKNQFSLKLNSVTAADTATYYCAHGYSYYYAMDAWGQGTSVTVSS
VL: DIQMTQSPSSLSASVGDRVTITCRTSQDISNYLNWYQQKPGKAVKLLISYTSRLHSGVPSRFSGSGSGTDYTLTISSLQPEDFATYYCQQGNTLPTFGQGTKLEIK
